The values that follow come from the supplement of paper PMC10567573.

± gives the standard deviation.

The data set in a line: protein stability index of a GFP-peptide fusion (GPS, HEK-293T) (PSI 1-6); higher = more stable. As to conditions: c terminus: a fixed tail appended.
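Note: 24-mer peptide tiles fused after GFP, lentivirally expressed, FACS-sorted into six equal bins by GFP/DsRed ratio, decoded by Illumina sequencing, PSI is the read-weighted mean bin number.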

Consider LNGSSQPTTRNYPELNNNQYNRSS [CDC14A], for which the protein stability index was determined as 4.19 ± 0.17 (treatment: DMSO) and 4.34 ± 0.09 (treatment: MLN4924 1 uM, 8 h).

For the sequence LNPSKLMEKEINGSKVTCRGLLEY [ATL3], the protein stability index reads like this: (treatment: DMSO) 2.92 ± 0.29; (treatment: MLN4924 1 uM, 8 h) 2.96 ± 0.2.

Regarding LPCARVQICRAQGLETLFSKAQEL [ZSWIM9], the protein stability index is, setting by setting: (treatment: DMSO) 2.87 ± 0.51; (treatment: MLN4924 1 uM, 8 h) 2.33 ± 0.79.

On to LPGNHSTSQEIFRQRFRHLRYQET [ZNF232], for which the protein stability index was 3.13 ± 0.17 (treatment: DMSO) and 3.39 ± 0.19 (treatment: MLN4924 1 uM, 8 h).

For LPGPTRPVLGRRAVGGRLRLVPGG [HAGHL], the protein stability index stood at 3.53 ± 0.41 (treatment: DMSO) and 3.67 ± 0.23 (treatment: MLN4924 1 uM, 8 h).

For LPIQTPGAFLRTCLLSSNSRSLLT [TLE6], the protein stability index reads like this: (treatment: DMSO) 2.06 ± 0.34; (treatment: MLN4924 1 uM, 8 h) 2.1 ± 0.19.

With LPPALVPAGGLAPGGGRGALLDQI [WAS], the protein stability index runs as follows: (treatment: DMSO) 3.69 ± 0.12; (treatment: MLN4924 1 uM, 8 h) 3.71 ± 0.25.

As for LPPIPHVFSAGTGSAILPHFHHAF [PLAGL1], the protein stability index by setting is: (treatment: DMSO) 2.15 ± 0.28; (treatment: MLN4924 1 uM, 8 h) 2.11 ± 0.1.

Consider LPSLVLARLVFVPLLLLCNIKPRR [SLC29A1], for which the protein stability index reads like this: (treatment: DMSO) 2.79 ± 0.57; (treatment: MLN4924 1 uM, 8 h) 2.73 ± 0.41.

Take LPTLSHIQEAQSAWKDDFALNSML [YJU2B]: the protein stability index runs as follows: (treatment: DMSO) 3.13 ± 0.3; (treatment: MLN4924 1 uM, 8 h) 3.04 ± 0.23.

Regarding LQFTILLSLIGVRVDVDTYLTSQL [NFE2L1], the protein stability index stood at 2.97 ± 0.47 (treatment: DMSO) and 3.13 ± 0.27 (treatment: MLN4924 1 uM, 8 h).

With LQGTESLNRATQSIERSHRIATET [VTI1B], the protein stability index was determined as 4.65 ± 0.18 (treatment: DMSO) and 4.76 ± 0.14 (treatment: MLN4924 1 uM, 8 h).

LQLFSSTLVGCWSDVVGRRSSLLA [MFSD9]: the protein stability index reads like this: (treatment: DMSO) 2.59 ± 0.65; (treatment: MLN4924 1 uM, 8 h) 2.38 ± 0.47.

LQLLQSRTSRKFLACRLTPDMETK [INTS3] gave a protein stability index (treatment: DMSO) of 2.69 ± 0.18 and a protein stability index (treatment: MLN4924 1 uM, 8 h) of 2.68 ± 0.2.

Regarding LRALGELLRRDLGVGTSMEGASPL [FANCE], the protein stability index by setting is: (treatment: DMSO) 2.92 ± 0.32; (treatment: MLN4924 1 uM, 8 h) 2.91 ± 0.43.

Regarding LRAVRQRSEFTLMAKRIGKDLSNT [STX5], the protein stability index came to 2.64 ± 0.23 (treatment: DMSO) and 2.78 ± 0.37 (treatment: MLN4924 1 uM, 8 h).

Take LRCGNQGKGWKATRLFHDSAVTSV [DCAF4]: the protein stability index (treatment: DMSO) was found to be 2.19 ± 0.21 and the protein stability index (treatment: MLN4924 1 uM, 8 h) amounted to 2.27 ± 0.22.

Regarding LRDGAVPLPESRREIEELLAEAKY [KCTD10], the protein stability index was 4.5 ± 0.25 (treatment: DMSO) and 4.66 ± 0.28 (treatment: MLN4924 1 uM, 8 h).

With LRDWEDLQQDFQNIQETHRLYRLK [TMEM120A], the protein stability index is 3.38 ± 0.28 (treatment: DMSO) and 3.49 ± 0.4 (treatment: MLN4924 1 uM, 8 h).

In the case of LRGPSPWGFRLVGGRDFSAPLTIS [PDLIM4], the protein stability index runs as follows: (treatment: DMSO) 2.79 ± 0.2; (treatment: MLN4924 1 uM, 8 h) 2.44 ± 0.22.

For LRHDEVRTYFHEFGHVMHQICAQV [NLN], the protein stability index by setting is: (treatment: DMSO) 2.31 ± 0.12; (treatment: MLN4924 1 uM, 8 h) 2.22 ± 0.26.

As for LRLEREEYVLLKALALANSDSVHI [ESRRA], the protein stability index by setting is: (treatment: DMSO) 2.51 ± 0.15; (treatment: MLN4924 1 uM, 8 h) 2.27 ± 0.2.

For LRSSDLYRHQRLHTGERPYECTVC [ZNF449], the protein stability index reads like this: (treatment: DMSO) 3.05 ± 0.17; (treatment: MLN4924 1 uM, 8 h) 3.17 ± 0.29.

For the sequence LRTLDKKTFYKTADISQMLVCTAD [TAF7L], the protein stability index runs as follows: (treatment: DMSO) 2.61 ± 0.32; (treatment: MLN4924 1 uM, 8 h) 2.65 ± 0.41.

For the sequence LRTLSRAKFWPRRRFNFFVLENNL [DNAAF3], the protein stability index was 2.33 ± 0.99 (treatment: DMSO) and 2.15 ± 0.087 (treatment: MLN4924 1 uM, 8 h).

As to LRYTLWIPLYPLGCLAEAVSVIQS [HACD3], the protein stability index reads like this: (treatment: DMSO) 3.08 ± 0.49; (treatment: MLN4924 1 uM, 8 h) 3.11 ± 0.37.

For the sequence LSCLHSVCEQCLQILYESCPKYKF [RNF208], the protein stability index runs as follows: (treatment: DMSO) 2.2 ± 0.25; (treatment: MLN4924 1 uM, 8 h) 2.35 ± 0.51.

In the case of LSDFEECEETGELFEEPAPQALAT [FCHSD1], the protein stability index came to 5.21 ± 0.22 (treatment: DMSO) and 5.2 ± 0.23 (treatment: MLN4924 1 uM, 8 h).

For the sequence LSFYNARTKQVLHTFKTRFTQPLL [FSD1], the protein stability index is, setting by setting: (treatment: DMSO) 2.45 ± 0.6; (treatment: MLN4924 1 uM, 8 h) 2.43 ± 0.6.

With LSIQVEEERRAREWLLDAPELPEG [ZMAT5], the protein stability index by setting is: (treatment: DMSO) 4.71 ± 0.34; (treatment: MLN4924 1 uM, 8 h) 5.06 ± 0.41.

Regarding LSNLQKESRACLERIQELEDLLAK [LMNB1], the protein stability index (treatment: DMSO) is 3.52 ± 0.15 and the protein stability index (treatment: MLN4924 1 uM, 8 h) was found to be 3.67 ± 0.23.

With LSQLRVLCCEWLRPEKHTKEQILE [ZNF232], the protein stability index is 2.37 ± 0.35 (treatment: DMSO) and 2.2 ± 0.22 (treatment: MLN4924 1 uM, 8 h).

Take LSRKKRLELDDNLDTERPVQKRAR [TRIB3]: the protein stability index is, setting by setting: (treatment: DMSO) 4.79 ± 0.14; (treatment: MLN4924 1 uM, 8 h) 4.62 ± 0.37.

LSTDMVHAASDPSSSSGRLSEPDP [SMOC2]: the protein stability index runs as follows: (treatment: DMSO) 5.29 ± 0.24; (treatment: MLN4924 1 uM, 8 h) 5.38 ± 0.15.

Take LSTNNNTLRDHFKGISSHSRSSLM [SLC2A12]: the protein stability index amounted to 2.93 ± 0.3 (treatment: DMSO) and 3.3 ± 0.16 (treatment: MLN4924 1 uM, 8 h).

On to LSYVMSGYRCFVCPVEYNNDTNSF [CDS2], for which the protein stability index by setting is: (treatment: DMSO) 2.78 ± 0.42; (treatment: MLN4924 1 uM, 8 h) 2.82 ± 0.45.
